Laboratory results from the DeepSol protein solubility set.

Experiment: soluble on expression in E. coli; label from the status in PepcDB or PDB records

Sequence | soluble on expression in E. coli
MLFFETDATLALWGEAVLAATWAEFPQLARNQLALTWIVYDDPVPVNTGGAIAPQSFWSLPIRGFHYRGDEAIYPASVVKLFYLVAALEWLQQGMIQPSAELDRALRDMIVDSSNDATGYIVDLLSGTTSGPELGDGPFKTWQFQRNIVNRYYQSLMWPELQPINVNQKTWGDGPYGRERAFYGPEFENRNKLTTNATARLLHAIAGGVAVSPSASQRMLNLLNRPFDPRSLAEDPENQVTGFLGQDLPQGSQLWSKAGWMSRVRHDAAYLEIPGLPPHLLVAFTEGKEHANNEAILPFIAQQVRQQLQPALEHHHHHH | soluble
MSNSKPVNYLTLKCLLKNMDSGMRLQLFVMFPSIQYLEKLFPLHVKYLTIKSDHITVNRTTFQLKICNKYNNFHGGYKFDFDQYGRLDRGEIEQDPDESIIDVRDGFLSKKGIPECEMETARLVHNLTLQKSQRYSTRIWESHGTILKKLSYYVPENNFIRLKIGKRVEVLEYQRKIHEAMKYLLGRLFGGRSLEANQFSIGCDTVLRVPSTLKFRIENLYTPSFKIANTLDVVNQIVDNSSLPLSSLKYSFENHIYHHPHSLVRTVKMLKLEVEMVPDYISGIVSNLQMVDEKRAHIVFLGDCTSSNFLKILAHWILEFHRDIGTYHTYQLSEAVVDEVMIFVRTNYGVMIEAGLPQTTDQITLNINDTSSLVISKFQQKEKWIFGLKMEH | not soluble
SGKCYLSLHEHNSSANRGACAQICRRGYTVKDKDSGLELDIENQYIMSPKDLKTIHFINKMMDAGVRVFKIEGRARGPEYVYTVCRCYKEAIEAYCNGTYDEESIGRWDEQLATVFNRGFWDGYYLGQRLGEWTHRYGSGATRQKIYVGKGIKYFSRLGVAEFEIESGELHIGDEIVITGPTTGVIIQKVEEIRYELQTVEKATKGQRISIPVKEKVRPSDKLYRFDKRE | not soluble
MAHHHHHHMGTLEAQTQGPGSMLYIIGLGLYDEKDITVRGLEAVKSCDLVFLEHYTAILQCDVAKLEEFYGKKVIIGDRDLVETEADQILEPAKTKNVALLVVGDVYGATTHSDIFVRCQKMGIEVKVIHNASIMNAIGCSGLQLYRFGQTVSVCFWSEHWRPSSYYPKIKINRDNNMHTLVLLDIKVKERSEESIIKGRDIFEPPRYMTINQCIEQLLEVEKEQHLGVYDEDTMVVGMARVACADQKIVYGKMKDLLHYDFGAPMHCLLIPAPQVDDPELDQLEYFKYKPE | soluble
SLGGLKLGDLCRLKGQETNTLQGLGLVVGLQGTGDGDAAPKGRALARMMQLMGGPMAVDAAGRLNIEDVGDAKNVAMVFVSATIPTVGAQQGDVLDVTINAISAKSLDGGYLMLTPMLGPRADNPTVYGMAEGRISVSADSPPTSATIQGGLKMETSVRASYVHDNRITLVIDRDFADFSTAHMIEEEVNSLTSFTIGDRNVSRLASPNHQGTGQDGNIALARAIDQLHVEVVIPPTYRDNPIKFIAFLLDIVIPLSNRGKRVVINEADGVVVIGEDVEIAPVLVTHRNLRIEAGGGGRFVEVGPDGTPAAAKLKSLADALGALDVPTEDLIAIIKTLKAKGDLYGEVIFR | not soluble
MLSDYEEFLRLEKARKIILEILNEKGRDALYDLSGLSGGFLIDEKDKALLNTYIGSSYFAEKVNEYGLKHLGGDENDKCVGFNRTSSAILATILALKPKKVIHYLPELPGHPSIERSCKIVNAKYFESDKVGEILNKIDKDTLVIITGSTMDLKVIELENFKKVINTAKNKEAIVFVDDASGARVRLLFNQPPALKLGADLVVTSTDKLMEGPRGGLLAGKKELVDKIYIEGTKFGLEAQPPLLAGIYRALKNFNLERIRKAFERAKNFDLSKIEKLNKELKAIDDNINIVYERTPTGFVIKRVYKDDTINIKKLIEIGFNLLKNYGIITITVAGMPGASKSLRIDLTSRDAERIDDNYIIKAIVESIKMAFKS | soluble
MKDDRQKASVLAVRMIPNVDLAMCKEFSMPEGHRSIGLITSDCDDVTYTALDDATKKADIKVVYAKSFYGGAANANTKLAGEVIGIISGPNPAEVKSGLSAVVDFVENEAAFISANEDDSIAYYAHCISRTGSYLSEVAGIPEGESIAYLIAPPLEAMYALDVALKSANVELVAFYGPPSETNFGGGLLTGSQSACKAACDAFAEAVKAVAANPLGY | not soluble
MAKRIQFSTVGGPEVLEYVDFEPEAPGPQAVVVRNKAIGLNFIDTYYRSGLYPAPFLPSGLGAEGAGVVEAVGDEVTRFKVGDRVAYGTGPLGAYSEVHVLPEANLVKLADSVSFEQAAALMLKGLTVQYLLRQTYQVKPGEIILFHAAAGGVGSLACQWAKALGAKLIGTVSSPEKAAHAKALGAWETIDYSHEDVAKRVLELTDGKKCPVVYDGVGQDTWLTSLDSVAPRGLVVSFGNASGPVSGVNLGILAQKDSVYVTRPTLGSYANNAQNLQTMADELFDMLASGKLKVDGIEQYALKDAAKAQIELSARRTTGSTILIP | soluble
MTSSLSLHSSFVPSFADLSDRGLISKNSPTSVSISKVPTWEKKQISNRNSFKLNCVMEKSVDGQTHSTVNNTTDSLNTMNIKEEASVSTLLVNLDNKFDPFDAMSTPLYQTATFKQPSAIENGPYDYTRSGNPTRDALESLLAKLDKADRAFCFTSGMAALSAVTHLIKNGEEIVAGDDVYGGSDRLLSQVVPRSGVVVKRVNTTKLDEVAAAIGPQTKLVWLESPTNPRQQISDIRKISEMAHAQGALVLVDNSIMSPVLSRPLELGADIVMHSATKFIAGHSDVMAGVLAVKGEKLAKEVYFLQNSEGSGLAPFDCWLCLRGIKTMALRIEKQQENARKIAMYLSSHPRVKKVYYAGLPDHPGHHLHFSQAKGAGSVFSFITGSVALSKHLVETTKYFSIAVSFGSVKSLISMPCFMSHASIPAEVREARGLTEDLVRISAGIEDVDDLISDLDIAFKTFPL | soluble
MSTEHLTPELLRLADSTPGFMPEDEGTALHEAAMQYLPPGGVGVEIGTYCGRSTIYLGAAAKARAARIVTIDHHHGSEEHQPGWEYHEPAFVDPHTGLLDTVGRFRHTMADSGLEDYVVGVLGRSSTVATFWRTPVHFVFIDGGHTSEAASADLEGWAPWVNVGGALVIHDVFPDPADGGRPPFEIYERALATGQFKETSVTGSLRVLERVGGQTGEPLA | not soluble
MRGSHHHHHHGSTTFNIQDGPDFQDRVVNSETPVVVDFHAQWCGPCKILGPRLEKMVAKQHGKVVMAKVDIDDHTDLAIEYEVSAVPTVLAMKNGDVVDKFVGIKDEDQLEAFLKKLIG | soluble
LKSESAEKTREVLWQQYYASNPPDHAVLEVLATPVREALLARFGQHQGSVVPAIDLPELRSVLQQFDSFGKRWEAILLQVLEGIKPNESQVGLPYLSELINKELMILLPSNS | soluble
MGSDKIHHHHHHMTRSAEPRVLQFCHGYDGPFLDCARQYASLFAGTPYKVTTVFLTGRSDPEVAARCASDEVLFLEYGSRDIRGLKLKAIRDLREIARSRDFRFCIAHRFKPIWIASLATRLPIVGVHHAFGDYQRLSRKVFAGLMSKRLSLLAVSDAVRDDIRRCLPKWPAERIETLYNRIDVAALQAEQVERLSARRQLRLPDEAWVVGNVGRLHPDKDQATLLRGFAAALPRLPQNSLLAILGSGRLEEQLKDLACELGIGERVLFLGQVEEARRYFKAFDAFALSSDHEPFGMVLLEAMVAGVPLIATACGGAREVVEGVGILFPLGDETALAEGLTHLAALDRRQREACARLMLERLETRFSDAAVRREFWRLPTIAGFASESAC | not soluble
MSYNLNLSHNIYKDAKLGTYYFRITYYDKSNTRKYITRKGFKQRKDAVKKCNEMMDELEGVGHLNRLPFDKLVEEYIDWYSARRKTSSVKALKTHTNNHLLPYFKSMDVFKMTTQDVMKFQNKKLKEGHSGDYLKKMHVYLVSLLNHAMKFHELKQNVASLVGNFEIESQKRLNYWTLEQFNQFYEALATQQQKLFFKLLFYSGARKGEIRALTWRDINFDDDFIHINKTDYHGEVTAPKTKSAIRDIYLPTHMMYDIKDYLIWYKENNIYKDDYVLFGTFYKAYSESTIDRW | not soluble
MLLNAVNQNQPTIAAEINYIKPNIQATFDLSTSKKSADTLTEQVDKRVVEITDARLLAKTATLKEDGFGLVANKYHMADYFDDAMVSTELYPQIIKHLMSLTNASKGVVFDHTIRSVEDKLHRAEKRSPIHTVHNDYVASSAQHRLHIELEKQGLKASDYHRYQFINTWIPLVDVVLDSPLAFADMRSVTSEQSHLLQVAYPDRVGEIEGFSYNPNNRWFYFSRMTSKEQLNFKVFDSDKSNAVNRTPHSAFLLPSVAENVQSRVSIELRTILLFNKLEHHHHHH | not soluble
MRCVYCHNAQLQEFAPGAVGVDDLVGLARRRIGLIDAVVISGGEPTAVPGLAEAICRIHDLGLPVGLHTCGYAPKRLATLVSQPESRPDWIGLDIKALPRHMHEITGCSPRVAQSCWESLAIIDAVGIEVQTRTTLWPGSVIEQNLRELEVMVAAQGHELVVQQARF | not soluble
MADWVTGKVTKVQNWTDALFSLTVHAPINPFTAGQFTKLGLEIDGERVQRAYSYVNAPDNPNLEFYLVTVPQGKLSPRLAALKPGDEVQVVSDASGFFVLDEVPDCETLWMLATGTAIGPYLSILQYGQDVARFKNLVLVHAARFAADLSYLPLMLELQQRYEGKLRIQTVVSRENVPGSLTGRVPALIENGELEKAVGLPMDKETSHVMLCGNPQMVRDTQQLLKETRQMTKHLRRRPGHMTAEHYW | not soluble
MGSDKIHHHHHHMGLLNLLSTNRNENLFLPAHGRGNSLPKNIKTLLRLRPGIWDLPELFEIGGPLISEGAIAESQKSSAYEVGVDRCWYGVNGATGLLQSSLLALAHPGQAVLMPRNIHKSCIQACLFGGLTPLLFDVPYLTDRGHASVMDRKWLQRVLKKAKEYEDDIAAVVLVNPTYQGYSADMESLIKEIHSHSLPVLVDEAHGAYLISQIRPDLPKSAISFGADLVVHSLHKSASGLVQSAVLWSQGDKVDPFKIERAIELLQTSSPSSLLLASCESSIKELLESKGIKKLRLCIEEAEMLKDFLIKNEVPLLKNSDPLKIILHTSKFGLSGIEVDKSFIRKRMIGELAEPGTLTFCLGLSSHKRLGKRFVRIWNEILKACGKQKPCFFKRPPFGIVSKPYKSYSDSWGSNFEKVNLKDAIGRISVEMVCPYPPGIPLLIPGEILDEARVDWLIEQKSFWPEQISDFVRVIS | not soluble
MSDATLHNTTQDPDDFAVQIADQVESFLVAVTEVAKGDEPDSAVPFLLLEVSQLLLAGGRLGAHEDIVPDERYEPDMGPEPDVDELRERLATMLDPVDVYSEVFDPYEPRKAPVPARISDDLADVIADLRHGMAHYRAGRTTEALWWWQFSYFSNWGSTASATLRALQSLVAHVRLNQPLEELDGLDTDQDLSEDALAEEAGRVMASEIAGPLGLRTVRLEHHHHHH | soluble
QLSPDIYAKSCPNLVQIVRKQVAIALKAEIRMAASLIRLHFHDCFVNGCDASLLLDGADSEKLAIPNINSARGFEVIDTIKAAVENACPGVVSCADILTLAARDSVVLSGGPGWRVALGRKDGLVANQNSANNLPSPFEPLDAIIAKFVAVNLNITDVVALSGAHTFGQAKCAVFSNRLFNFTGAGNPDATLETSLLSNLQTVCPLGGNSNITAPLDRSTTDTFDNNYFKNLLEGKGLLSSDQILFSSDLAVNTTKKLVEAYSRSQSLFFRDFTCAMIRMGNISNGASGEVRTNCRVINN | soluble
VVIPSPCCMFFVSKRIPENRVVSYQLSSRSTCLKAGVIFTTKKGQQSCGDPKQEWVQRYMKNLDAKQKKASPR | soluble
MKVLFRSDSSSQIGFGHIKRDLVLAKQYSDVSFACLPLEGSLIDEIPYPVYELSSESIYELINLIKEEKFELLIIDHYGISVDDEKLIKLETGVKILSFDDEIKPHHCDILLNVNAYAKASDYEGLVPFKCEVRCGFSYALIREEFYQEAKENRKKKYDFFICMGGTDIKNLSLQIASELPKTKIISIATSSSNPNLKKLQKFAKLHNNIRLFIDHENIAKLMNESNKLIISASSLVNEALLLKANFKAICYVKNQESTATWLAKKGYEVEYKYLEHHHHHH | soluble
